# In article PMC3868960:
# Target: tumor necrosis factor-related apoptosis-inducing ligand (TRAIL) (human) (UniProt P50591)
# Assay: non-reducing SDS-PAGE
substance,measurement,value
tumor necrosis factor-related apoptosis-inducing ligand (TRAIL) (from UniProt P50591 1-281),percent dimer,27.2%
same,percent monomer,70.1%
same,percent trimer,2.62%
